For assay [1], the target named is T1, recombinant human GPC3 (rhGPC3) fluorescently conjugated to DyLight 650 (human, UniProt P51654 25-559, limits assumed, fluorescently conjugated to DyLight 650).
T1 construct: Soluble staining reagent for flow cytometry, diluted 1:200; also called Glypican-3
The experiment in a line: flow cytometry; transduced T cells stained with rhGPC3-DyLight 650 at 1:200; gated live CD3+. From the text:
(§1) Similar to the previous trials, CD3⁺ cells were isolated from primary human peripheral blood mononuclear cells (PBMCs) and transduced with the GPC3 CAR constructs above in the presence of polybrene and at a multiplicity of infection of two, based on expression titer in Jurkat cells. At the end of manufacturing, cells were frozen down in Cryostor® CS5 and stored in liquid nitrogen until thawing. Upon thawing, cells were rested in T cell culture medium overnight with 100 UI/mL IL-2, washed, and stained with Live/Dead™ Violet diluted at 1:1000, recombinant human GPC3 (rhGPC3) fluorescently conjugated to DyLight™ 650 diluted at 1:200, and anti-CD3 BV650 at 1:100 in PBS for 30 min at 4° C. The DNA of a pellet of 1×10⁵ cells was extracted in QuickExtract™ Buffer, frozen, and used to measure average vector copy number (VCN) by droplet digital PCR quantifying frequency of integrated virus per cell. Percentage CAR+ cells are defined as percentage of cells staining with rhGPC3 amongst Live/Dead™ negative, CD3⁺ positive cells, and Mean Fluorescence Intensity (MFI) of CAR⁺, and Vector copy number (VCN) are given in the example. […] Construct CAR 1 also has higher MFI of CAR⁺ cells, which could indicate more efficient expression or higher affinity of the CAR to rhGPC3.

The target of assay [2] is T1, recombinant human GPC3 (rhGPC3) …. The experiment in a line: flow cytometry; rhGPC3-DyLight 650 staining of CAR+ T cells.
Description: as §1

For assay [3], the target named is TGF-β Receptor Type II (TGF-βRII), endogenous wild-type, in primary human T cells (human, UniProt P37173 23-567). The experiment in a line: cell-based or functional assay.
TGF-β Receptor Type II (TGF-βRII), endogenous wild-type, in primary human T cells, sequence (P37173 23-567): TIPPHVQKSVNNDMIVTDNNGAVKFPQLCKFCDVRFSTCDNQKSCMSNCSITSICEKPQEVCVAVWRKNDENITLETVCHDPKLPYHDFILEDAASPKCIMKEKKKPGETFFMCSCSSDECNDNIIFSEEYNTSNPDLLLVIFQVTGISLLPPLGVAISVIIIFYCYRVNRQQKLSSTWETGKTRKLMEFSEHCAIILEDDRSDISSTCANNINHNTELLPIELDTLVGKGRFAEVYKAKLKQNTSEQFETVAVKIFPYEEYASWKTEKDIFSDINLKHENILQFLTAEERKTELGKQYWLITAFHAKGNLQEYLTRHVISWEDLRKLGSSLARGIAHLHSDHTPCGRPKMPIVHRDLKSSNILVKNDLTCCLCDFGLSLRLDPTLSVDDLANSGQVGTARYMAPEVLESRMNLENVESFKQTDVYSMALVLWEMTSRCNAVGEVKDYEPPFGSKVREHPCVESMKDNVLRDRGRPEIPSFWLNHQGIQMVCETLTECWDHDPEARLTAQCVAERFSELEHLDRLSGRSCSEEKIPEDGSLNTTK

T1 sequence (P51654 25-559 limits assumed): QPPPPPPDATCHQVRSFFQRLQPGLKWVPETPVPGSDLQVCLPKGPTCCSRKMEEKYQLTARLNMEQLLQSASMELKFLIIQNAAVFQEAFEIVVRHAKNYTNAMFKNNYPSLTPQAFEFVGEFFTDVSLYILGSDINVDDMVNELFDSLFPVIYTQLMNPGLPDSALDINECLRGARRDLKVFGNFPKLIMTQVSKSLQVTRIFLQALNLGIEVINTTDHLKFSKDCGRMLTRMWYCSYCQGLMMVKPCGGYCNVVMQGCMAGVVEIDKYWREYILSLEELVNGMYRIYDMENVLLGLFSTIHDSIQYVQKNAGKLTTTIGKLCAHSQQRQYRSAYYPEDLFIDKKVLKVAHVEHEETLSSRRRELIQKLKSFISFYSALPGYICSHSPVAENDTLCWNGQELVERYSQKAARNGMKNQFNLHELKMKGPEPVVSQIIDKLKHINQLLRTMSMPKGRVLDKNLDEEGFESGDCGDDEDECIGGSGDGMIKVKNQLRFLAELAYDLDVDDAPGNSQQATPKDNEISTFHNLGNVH

B1: Construct CAR 1 (GPC3 scFv + 4-1BB intracellular domain + CD3ζ intracellular domain), GPC3-CAR encoded by the codon-optimized sequence of SEQ ID NO: 51 (other)
chain: DIVMTQSPDSLAVSLGERATINCKSSQSLLYSSNQKNYLAWYQQKPGQPPKLLIYWASSRESGVPDRFSGSGSGTDFTLTISSLQAEDVAVYYCQQYYNYPLTFGQGTKLEIKGSTSGSGKPGSGEGSTKGEVQLVESGGGLVQPGGSLRLSCAASGFTFNKNAMNWVRQAPGKGLEWVGRIRNKTNNYATYYADSVKARFTISRDDSKNSLYLQMNSLKTEDTAVYYCVAGNSFAYWGQGTLVTVSSGSTTTPAPRPPTPAPTIASQPLSLRPEACRPAAGGAVHTRGLDFACDIYIWAPLAGTCGVLLLSLVITLYCKRGRKKLLYIFKQPFMRPVQTTQEEDGCSCRFPEEEEGGCELRVKFSRSADAPAYQQGQNQLYNELNLGRREEYDVLDKRRGRDPEMGGKPRRKNPQEGLYNELQKDKMAEAYSEIGMKGERRRGKGHDGLYQGLSTATKDTYDALHMQALPPR
notes: Chimeric antigen receptor expressed on transduced primary human CD3+ T cells; also called GPC3-CAR construct
As to B1, in assay [1], the “% CAR + (percentage of cells staining with rhGPC3)” value came out at 93.4%. Moreover, the “MFI CAR +” value in assay [2] is 21100 MFI.

B2: engineered, dominant-negative TGF-β receptor Type 1 (DN TGF-βRI) construct of SEQ ID NO: 10 (receptor)
chain: LQCFCHLCTKDNFTCVTDGLCFVSVTETTDKVIHNSMCIAEIDLIPRDRPFVCAPSSKTGSVTTTYCCNQDHCNKIELPTTVKSSPGLGPVELAAVIAGPVCFVCISLMLMVYIRVNRQ
Take B2: in assay [3], the “fold less induction of pSMAD2 and pSMAD3 versus PSMA CAR only, TGF-β1 stimulated T cells” value is approximately 2 fold; the “fold less induction of pSMAD2 versus CD19 CAR only, TGF-β1 stimulated T cells” value is approximately 4 fold; the “fold less induction of pSMAD2 versus GPC3 CAR only, 4-1BB co-stimulation, TGF-β1 stimulated T cells” value was approximately 3 fold; the “fold less induction of pSMAD3 versus CD19 CAR only, TGF-β1 stimulated T cells” value was approximately 2 fold. Moreover, the “fold less induction of pSMAD3 versus GPC3 CAR only, 4-1BB co-stimulation, TGF-β1 stimulated T cells” value in assay [3] is approximately 1.3 fold.
